# Results: patent US20260241035A1, “FUNCTIONAL NUCLEIC ACID MOLECULE AND METHOD” (THE UNIVERSITY COURT OF THE UNIVERSITY OF EDINBURGH, priority 2022, published 2026)
# B1: ID1101: enhancer fragment, SEQ ID NO: 4 (nucleic acid)
# DNA: GTGAGTGTGACTCACATGCTGGCATCAGAGCCCCTCTTAGAGCTTAGAACACTGGGCCTCTGTCAGGCAAAGAAAAGGAGTCCCTATGAATAGCCATCTCCACAAATAGCAGTTACTGTCACTTCTTAAAAGACACAAGCATGGCTGGAGACCGGCACTG
# System: GSC7 cells
# Test: Nano-Glo Dual-Luciferase Reporter (Nanoglo DLR) assay of enhancer activity, fold change to mCMV
# Format: cell-based, human
# Details: expression fold change of the individual enhancer compared to mCMV
# Procedure, shortened: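 160 bp enhancer fragments in NanoLuc reporter plasmids were co-transfected 1:10 with PGK-firefly luciferase into GSC7 cells using Lipofectamine LTX/Plus and read two days later. NanoLuc signal was normalised to firefly, then expressed as fold change to the empty mCMV vector.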
molecule,measurement,value
B1,Fold change (Median),258.8 fold
